In test [1] the target is T1, human FOLR1 protein (Homo sapiens, UniProt P15328).
T1 construct: His tag; purchased ACRO FO1-H52H1
Nature of the test: ELISA binding to human FOLR1 protein. The method, then: (§1) The ability of the antibodies to bind to human FOLR1 protein or to cross binding to cynomolgus FOLR1 protein was tested by standard ELISA. Briefly, the human FOLR1 (ACRO-FO1-H52H1) or cynomolgus FOLR1 protein (ACRO, F01-C52H8) with a His tag was diluted to 5 μg/ml with a carbonic acid coating solution at pH 9.6 and 100 μL antigen was coated in each well of 96-well microtiter plate at 4° C. overnight. The liquid in the wells was discarded and the wells were washed three times with PBST. The wells were then blocked with 4% skim milk powder-PBS (Sigma, D5652-1 L), using 300 μL/well and the plates incubated in 37° C. for 1 hour. The liquid in the wells was discarded, and the well were washed three times with PBS. Samples were added using 100 μL/well; PBS was added in the control group. The plates were incubated at 37° C. for 1 hour. The liquid in the wells was discarded and the wells were washed three times with PBST. HRP-goat anti-human IgG (Sigma, 118885-2ML) was added (with 1:5000 dilution, 100 μL/well) and the plates were incubated in 37° C. for 1 hour. Then the liquid in the wells was discarded, and the wells were washed five times with PBST. A TMB solution was added using 100 μL/well. 2M H2SO4 was added to each well using 50 μL to terminate the reaction after […]. The A450 values were read using a microplate reader.

The test system of test [2] is cynomolgus FOLR1 protein. Nature of the test: ELISA cross binding to cynomolgus FOLR1 protein. The method, then: as §1

T1 sequence (P15328 25-234): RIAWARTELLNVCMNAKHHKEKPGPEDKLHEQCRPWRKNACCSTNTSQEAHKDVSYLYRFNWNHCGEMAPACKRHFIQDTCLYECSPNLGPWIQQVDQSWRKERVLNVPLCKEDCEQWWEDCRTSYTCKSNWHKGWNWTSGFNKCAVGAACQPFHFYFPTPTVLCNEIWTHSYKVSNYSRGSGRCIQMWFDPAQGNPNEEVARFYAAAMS

B1: F40: anti-FOLR1 antibody clone: "Clone F40 has a different HCDRs and LCDRs, and with different HFR and LFR" (antibody, V domains shown)
VH: EVQLLESGGGVVQPGRSLRLSCAASGFTFSSYAMHWVRQAPGKGLEWVAVISYDGSNKYYADSVKGRFIISRDNSKNTVYLQMNSLRAEDTAVYYCARPTYVFTYTGSSFDYWGQGTQVTVSS
VL: DIQVTQSPSSLSASLGDTVSITCRASRGLTDSVAWYQQKPGQAPKLLIYAASTLQSGVPSRFGGSGSGSYFTLTITSLQPEDVATYYCQNYKSAPWTFGQGTKVEIK
As for B1, the “OD450, Target: Human FOLR1 Protein His Tag, Diluted 1x” value in test [1] (supernatant diluted 1x) came out at 0.811 OD450. For the same molecule, in test [1] (supernatant diluted 5x), the “OD450, Target: Human FOLR1 Protein His Tag, Diluted 5x” value is given as 0.382 OD450. Also, the “OD450, Target: Human FOLR1 Protein His Tag, Diluted 25x” value in test [1] (supernatant diluted 25x) was 0.163 OD450. The “Target binding, coating with Human FOLR1 Protein” value in test [1] (transfection supernatant, ELISA) was determined as 2.3860 OD450. Besides, the “OD450, Target: Cynomolgus/Rhesus macaque FOLR1, Protein, His Tag, Diluted 1x” value in test [2] (supernatant diluted 1x) came out at 1.354 OD450. Moreover, the “OD450, Target: Cynomolgus/Rhesus macaque FOLR1, Protein, His Tag, Diluted 5x” value in test [2] (supernatant diluted 5x) worked out at 1.111 OD450. Besides, the “OD450, Target: Cynomolgus/Rhesus macaque FOLR1, Protein, His Tag, Diluted 25x” value in test [2] (supernatant diluted 25x) is 0.924 OD450.

For the origin of these results see patent publication US20240207418A1, “LINKERS, DRUG LINKERS AND CONJUGATES THEREOF AND METHODS OF USING THE SAME” (ProfoundBio US Co., priority 2021, published 2024).
